Data from US20170189504A1.

Target: HLA-A*24 (human)
Experiment: UV-ligand exchange, anti-b2m ELISA

Binder	peptide exchange yield [%]
AYVVFVSTL [SEQ ID NO: 207 peptide …]	20 to 49
TYKDEGNDYF [SEQ ID NO: 209 peptide …]	50 to 75
QYLGQIQHI [SEQ ID NO: 268 peptide …]	50 to 75
LYITEPKTI [SEQ ID NO: 287 peptide …]	50 to 75
VYWDSAGAAHF [SEQ ID NO: 202 peptide …]	> 75
RYAEEVGIF [SEQ ID NO: 199 peptide …]	50 to 75
YFIDSTNLKTHF [SEQ ID NO: 269 peptide …]	50 to 75
TFSVSSHLF [SEQ ID NO: 222 peptide …]	50 to 75
PYRLIFEKF [SEQ ID NO: 281 peptide …]	20 to 49
HYPPVQVLF [SEQ ID NO: 285 peptide …]	50 to 75
YYGPSLFLL [SEQ ID NO: 200 peptide …]	50 to 75
IYATEAHVF [SEQ ID NO: 201 peptide …]	50 to 75
TYELRYFQI [SEQ ID NO: 204 peptide …]	> 75
VYQGHTALL [SEQ ID NO: 277 peptide …]	> 75
YYKSTSSAF [SEQ ID NO: 218 peptide …]	50 to 75
NYYEVHKELF [SEQ ID NO: 270 peptide …]	50 to 75
